Test results taken from patent US20210324359A1, “USE OF GRAM-NEGATIVE LYSIN-ANTIMICROBIAL PEPTIDE (AMP) POLYPEPTIDE CONSTRUCTS IN TREATING ENDOCARDITIS” (priority 2020, published 2021).
Several values for one entry are separate records, joined by “and”; a condition that tells them apart may be missing. Equal values may be shown once.

How the values were obtained:
[1] = test system: carbapenem-resistant P. aeruginosa strains; assay: Resensitization of carbapenem-resistant strains, combinations with imipenem or meropenem (Tables 18-22); type: cell-based, Pseudomonas aeruginosa
[2] = test system: Pseudomonas aeruginosa strain CFS-1292 (meropenem resistant); assay: MIC in 25% CAA alone, with […] human serum or […] SURVANTA (Table 13); type: cell-based
Method: (§1) Materials and methods: MICs were determined by broth microdilution in media supplemented with human serum and pulmonary surfactant ([…]®; Myoderm Clinical Supplies). Minimal biofilm eradicating concentrations (MBECs) were determined using standard methods. […] Fluorescence microscopy was performed after LIVE/DEAD staining (ThermoFisher) and TEM was performed.

[3] = test system: Pseudomonas aeruginosa biofilm; assay: MBEC in CAA supplemented with […] human serum (Table 14); type: cell-based
Method: Biofilms are then washed and treated with e.g., a 2-fold dilution series of the lysin in TSBg at e.g., 37° C. for 24 hours. After treatment, wells are washed, air-dried at e.g., 37° C. and stained with e.g., 0.05% crystal violet for 10 minutes.
as §1

P. aeruginosa strains = assay: Checkerboard synergy with meropenem in 25% CAA and […] human serum (Table 16); type: cell-based, Pseudomonas aeruginosa; conditions: for FICI value (Run #1), with meropenem / FICI value (Run #2), with meropenem: 25% CAA and […] human serum
[4] = test system: Pseudomonas aeruginosa strain CFS-1292 (meropenem resistant); conditions: strain CFS-1292; no added cations
Method: The activity of selected GN lysins and constructs in the presence of divalent cations was evaluated, and the impact of divalent cations at physiological concentrations was examined in the MIC assay format.

[5] = test system: outer membrane of P. aeruginosa (CFS 1292); assay: N-phenyl-1-napthylamine (NPN) uptake assay, outer membrane destabilization (Table 15); type: cell-based, Pseudomonas aeruginosa; conditions: NPN fluorescence, buffer = 100, lysin 100 μg/well
Method: The ability of gram-negative lysins to destabilize the outer membrane of P. aeruginosa was evaluated through the use of an N-phenyl-1-napthylamine (NPN) uptake assay. […] NPN was added to a final concentration of […]. […] Changes in fluorescence were recorded (excitation 1=350 nm; emission 1=420 nm) over two hours.

P. aeruginosa isolates = assay: MIC against a range of isolates in CAA + […] human serum (Table 11); type: cell-based, Pseudomonas aeruginosa

B1: GN121: variant lysin (SEQ ID NO: 175), also disclosed in WO 2019/118632 (protein)
chain: MTYTLSKRSLDNLKGVHPDLVAVVHRAIQLTPVDFAVIEGLRSVSRQKELVAAGASKTMNSRHLTGHAVDLAAYVNGIRWDWPLYDAIAVAVKAAAKELGVAIVWGGDWTTFKDGPHFELDRSKYRRKKTRKRLKKIGKVLKWI
resensitization to carbapenems in synergistic combinations ([1]; imipenem (IPM) and meropenem (MEM), carbapenem-resistant isolates): reductions of IPM and MEM MICS to below breakpoint values | lysin MIC, Combination ([1]; in combination with imipenem, isolate PA19): 0.125 µg/mL | lysin MIC, Combination ([1]; in combination with imipenem, isolate PA20): 0.25 µg/mL | lysin MIC, Combination ([1]; in combination with imipenem, isolate PA21): 0.125 µg/mL | lysin MIC, Combination ([1]; in combination with imipenem, isolate PA22): 0.25 µg/mL | lysin MIC, Combination ([1]; in combination with imipenem, isolate PA23): 0.25 µg/mL | lysin MIC, Combination ([1]; in combination with imipenem, isolate PA24): 0.125 µg/mL | lysin MIC, Combination ([1]; in combination with meropenem, isolate PA19): 0.5 µg/mL | lysin MIC, Combination ([1]; in combination with meropenem, isolate PA20): 0.5 µg/mL | lysin MIC, Combination ([1]; in combination with meropenem, isolate PA22): 0.25 µg/mL | lysin MIC, Combination ([1]; in combination with meropenem, isolate PA23): 0.5 µg/mL | lysin MIC, Combination ([1]; in combination with meropenem, isolate WC-452): 0.06 µg/mL | MIC, Alone ([1]; isolate PA19): 1 µg/mL and 2 µg/mL | MIC, Alone ([1]; isolate PA20): 1 µg/mL and 2 µg/mL | MIC, Alone ([1]; isolate PA21): 1 µg/mL | MIC, Alone ([1]; isolate PA22): 2 µg/mL and 1 µg/mL | MIC, Alone ([1]; isolate PA23): 1 µg/mL and 2 µg/mL | MIC, Alone ([1]; isolate PA24): 1 µg/mL | MIC, Alone ([1]; isolate WC-452): 1 µg/mL | FICI ([1]; lysin + imipenem, isolate PA19): 0.155 | FICI ([1]; lysin + imipenem, isolate PA20): 0.265 | FICI ([1]; lysin + imipenem, isolate PA21): 0.155 | FICI ([1]; lysin + imipenem, isolate PA22): 0.188 | FICI ([1]; lysin + imipenem, isolate PA23): 0.257 | FICI ([1]; lysin + imipenem, isolate PA24): 0.155 | FICI ([1]; lysin + meropenem, isolate PA19): 0.281 | FICI ([1]; lysin + meropenem, isolate PA20): 0.313 | FICI ([1]; lysin + meropenem, isolate PA21): 0.188 | FICI ([1]; lysin + meropenem, isolate PA22): 0.313 | FICI ([1]; lysin + meropenem, isolate PA23): 0.375 | FICI ([1]; lysin + meropenem, isolate PA24): 0.156 | FICI ([1]; lysin + meropenem, isolate WC-452): 0.123 | MIC in […] Survanta [2]: 2 µg/mL | MIC in human serum ([…]) in CAA [2]: 0.5 µg/mL | activity in human serum and pulmonary surfactant [2]: active in human serum and pulmonary surfactant | 25% CAA MIC ([2]; media alone): 1 | MBEC in CAA supplemented with […] human serum [3]: 0.25 µg/mL | synergy with meropenem (P. aeruginosa strains; FICI less than or equal to 0.5 = potent synergy): exhibited synergy with meropenem | FICI value (Run #1), with meropenem (P. aeruginosa strains; strain CFS 1292): 0.25 | FICI value (Run #2), with meropenem (P. aeruginosa strains; strain CFS 1292): 0.292 | FICI value (Run #1), with meropenem (P. aeruginosa strains; strain CFS 1557 (PA19)): 0.375 | FICI value (Run #2), with meropenem (P. aeruginosa strains; strain CFS 1557 (PA19)): 0.427 | FICI value (Run #1), with meropenem (P. aeruginosa strains; strain CFS 1558 (PA20)): 0.125 | FICI value (Run #2), with meropenem (P. aeruginosa strains; strain CFS 1558 (PA20)): 0.156 | FICI value (Run #2), with meropenem (P. aeruginosa strains; strain CFS 1559 (PA21)): 0.229 | FICI value (Run #2), with meropenem (P. aeruginosa strains; strain CFS 1560 (PA22)): 0.313 | FICI value (Run #2), with meropenem (P. aeruginosa strains; strain CFS 1561 (PA23)): 0.198 | FICI value (Run #2), with meropenem (P. aeruginosa strains; strain CFS 1562 (PA24)): 0.214 | FICI value (Run #2), with meropenem (P. aeruginosa strains; strain CFS 1766 (ATCC 27853)): 0.229 | MIC in 25% CAA [4]: 1 to 2 µg/mL | % RFU ([5]; 5 minutes): 370 % RFU | % RFU ([5]; 10 minutes): 500 % RFU | % RFU ([5]; 20 minutes): 528 % RFU | % RFU ([5]; 40 minutes): 530 % RFU | % RFU ([5]; 60 minutes): 565 % RFU | % RFU ([5]; 100 minutes): 557 % RFU | activity against P. aeruginosa isolates in human serum or SURVANTA (P. aeruginosa isolates; Tables 11 and 12): active against a variety of P. aeruginosa isolates | MIC, CAA + […] Human Serum (P. aeruginosa isolates; strain CFS 1109 (ATCC 17646)): 0.5 µg/mL | MIC, CAA + […] Human Serum (P. aeruginosa isolates; strain CFS 1292): 1 µg/mL | MIC, CAA + […] Human Serum (P. aeruginosa isolates; strain CFS1539 (PA1)): 0.5 µg/mL | MIC, CAA + […] Human Serum (P. aeruginosa isolates; strain CFS 1540 (PA2)): 0.5 µg/mL | MIC, CAA + […] Human Serum (P. aeruginosa isolates; strain CFS 1541 (PA3)): 0.5 µg/mL | MIC, CAA + […] Human Serum (P. aeruginosa isolates; strain CFS 1557 (PA19)): 2 µg/mL | MIC, CAA + […] Human Serum (P. aeruginosa isolates; strain CFS 1558 (PA20)): 0.5 µg/mL | MIC, CAA + […] Human Serum (P. aeruginosa isolates; strain CFS 1559 (PA21)): 1 µg/mL | MIC, CAA + […] Human Serum (P. aeruginosa isolates; strain CFS 1560 (PA22)): 1 µg/mL | MIC, CAA + […] Human Serum (P. aeruginosa isolates; strain CFS 1561 (PA23)): 1 µg/mL | MIC, CAA + […] Human Serum (P. aeruginosa isolates; strain CFS 1562 (PA24)): 1 µg/mL | MIC, CAA + […] Human Serum (P. aeruginosa isolates; strain CFS 1596 (PA26)): 0.5 µg/mL | MIC, CAA + […] Human Serum (P. aeruginosa isolates; strain CFS 1597 (PA27)): 0.5 µg/mL | MIC, CAA + […] Human Serum (P. aeruginosa isolates; strain CFS 1669 (PA41)): 1 µg/mL | MIC, CAA + […] Human Serum (P. aeruginosa isolates; strain CFS 1674 (PA46)): 0.5 µg/mL | MIC, CAA + […] Human Serum (P. aeruginosa isolates; strain CFS 1675 (PA47)): 0.5 µg/mL | MIC, CAA + […] Human Serum (P. aeruginosa isolates; strain CFS 1766 (ATCC 27853)): 2 µg/mL
